Experimental data published in PMC10527703 (Structure (London, England : 1993), 2023).

Target: the molecule itself
Assay: ThT fluorescence aggregation + negative-stain TEM

Binding result, binds:
TENLQHQPGGGQVQIVYK (peptide, UniProt P10636-8 263-274, looked up) [R1R3_12Q]
KDNIQHVPGGGSVQIVYK (peptide, UniProt P10636-8 294-311, looked up) [R2R3_2Q]
TENLKHQPGGGQVQIVYQ (peptide, UniProt P10636-8 263-274, looked up) [R1R3_23Q]
TENLQHQPGGGKVQIVYQ (peptide, UniProt P10636-8 263-274, looked up) [R1R3_13Q]
